Substitutions are numbered along the chain they refer to.
B1: VRDN-03047 (antibody, V domains shown)
VH: QVELVESGGGVVQPGRSQRLSCAASGFTFSSYGMHWVRQAPGKGLEWVAIIWFDGSSTYYADSVRGRFTISRDNSKNTLYLQMNSLRAEDTAVYFCARELGRRYFDLWGRGTLVSVSS
VL: EIVLTQSPATLSLSPGERATLSCRASQSVSSYHAWYQQKPGQAPRLLIYDASKRATGIPARFSGSGSGTDFTLTISSLEPEDFAVYYCQQRSKWPPWTFGQGTKVESK
B2: VRDN-03110 (antibody, V domains shown)
VH: B1 VH with E3Q, Q18L, S31D, G33T, T58K, R65K, F95Y, L107I, S115T
VL: EIVMTQSPATLSVSPGERATLSCRASQGVSSYLAWYQQKPGQAPRLLIYGASTRATGIPARFSGSGSGTEFTLTISSLQSEDFAVYYCQQRSRWPPWTFGQGTKLEIK
B3: VRDN-03111 (antibody, V domains shown)
VH: B1 VH with E3Q, Q18L, S31D, G33T, T58K, A61V, R65K, F95Y, L107I, S115T
VL: B2 VL
B4: VRDN-03105 (antibody, V domains shown)
VH: QVQLVESGGGVVQPGRSLRLSCAASGFTFSDHYMDWVRQAPGKGLEWVAIIWFDGSSKYYVDSVKGRFTISRDNSKNTLYLQMNSLRAEDTAVYYCARELGRRYFDIWGRGTLVTVSS
VL: B2 VL with M4L, V13L, E70D, Q79E, S80P
B5: VRDN-03055 (antibody, V domains shown)
VH: B1 VH
VL: B1 VL with H33L, T56H
B6: VRDN-03109 (antibody, V domains shown)
VH: B4 VH with D31S, H32Y, Y33S, D35H, V61P, D62G
VL: B2 VL
B7: VRDN-03049 (antibody, V domains shown)
VH: B1 VH
VL: B1 VL with H33L, D50H
B8: VRDN-03053 (antibody, V domains shown)
VH: B1 VH
VL: B1 VL with H33L, R54H
B9: VRDN-03102 (antibody, V domains shown)
VH: B4 VH with H32Y, Y33T, D35H
VL: B2 VL with M4L, V13L, E70D, Q79E, S80P
B10: VRDN-03108 (antibody, V domains shown)
VH: B4 VH with D31S, H32Y, Y33S, D35H
VL: B2 VL
B11: VRDN-03106 (antibody, V domains shown)
VH: B4 VH with V61P, D62G
VL: B2 VL with M4L, V13L, E70D, Q79E, S80P
B12: VRDN-03050 (antibody, V domains shown)
VH: B1 VH
VL: B1 VL with H33L, A51H
B13: VRDN-03101 (antibody, V domains shown)
VH: B4 VH with H32Y, Y33T, D35H, V61A
VL: B2 VL with M4L, V13L, E70D, Q79E, S80P
B14: VRDN-03104 (antibody, V domains shown)
VH: B4 VH with V61A
VL: B2 VL with M4L, V13L, E70D, Q79E, S80P
B15: VRDN-03098 (antibody, V domains shown)
VH: B4 VH with D31S, H32Y, Y33S, D35H, V61A
VL: B2 VL with M4L, V13L, E70D, Q79E, S80P
B16: VRDN-03103 (antibody, V domains shown)
VH: B4 VH with H32Y, Y33T, D35H, V61P, D62G
VL: B2 VL with M4L, V13L, E70D, Q79E, S80P
B17: VRDN-03054 (antibody, V domains shown)
VH: B1 VH
VL: B1 VL with H33L, A55H
B18: VRDN-03099 (antibody, V domains shown)
VH: B4 VH with D31S, H32Y, Y33S, D35H
VL: B2 VL with M4L, V13L, E70D, Q79E, S80P
B19: VRDN-03100 (second entry of that label; VH and VL pair SEQ ID NO: 223) (antibody, V domains shown)
VH: B4 VH with D31S, H32Y, Y33S, D35H, V61P, D62G
VL: B2 VL with M4L, V13L, E70D, Q79E, S80P
B20: VRDN-03107 (antibody, V domains shown)
VH: B4 VH with D31S, H32Y, Y33S, D35H, V61A
VL: B2 VL
B21: VRDN-03051 (antibody, V domains shown)
VH: B1 VH
VL: B1 VL with H33L, S52H
B22: VRDN-03112 (antibody, V domains shown)
VH: B4 VH with H32Y, Y33T, D35H, V61P, D62G
VL: B2 VL
B23: VRDN-03114 (antibody, V domains shown)
VH: B4 VH
VL: B2 VL
B24: VRDN-03113 (antibody, V domains shown)
VH: B4 VH with V61A
VL: B2 VL

Target: Recombinant human his-tagged IGF 1R extracellular domain protein (human) (UniProt P08069)
Experiment: SPR, captured antibody, dissociation at pH 6

Kd	koff	kon	Binder
3.77 nM	0.000294 s⁻¹	78100 M⁻¹ s⁻¹	B1
1.7 nM	0.000378 s⁻¹	223000 M⁻¹ s⁻¹	B2
2.06 nM	0.000479 s⁻¹	233000 M⁻¹ s⁻¹	B3
1.99 nM	0.000281 s⁻¹	141000 M⁻¹ s⁻¹	B4
1.61 nM	0.00014 s⁻¹	87000 M⁻¹ s⁻¹	B5
2.72 nM	0.00049 s⁻¹	180000 M⁻¹ s⁻¹	B6
2.7 nM	0.000201 s⁻¹	74300 M⁻¹ s⁻¹	B7
1.67 nM	0.00016 s⁻¹	95500 M⁻¹ s⁻¹	B8
1.46 nM	0.000319 s⁻¹	218000 M⁻¹ s⁻¹	B9
1.85 nM	0.000413 s⁻¹	224000 M⁻¹ s⁻¹	B10
1.81 nM	0.00218 s⁻¹	1.2e+06 M⁻¹ s⁻¹	B11
2.25 nM	0.00017 s⁻¹	75800 M⁻¹ s⁻¹	B12
1.23 nM	0.000268 s⁻¹	219000 M⁻¹ s⁻¹	B13
1.63 nM	0.000283 s⁻¹	173000 M⁻¹ s⁻¹	B14
1.24 nM	0.000306 s⁻¹	247000 M⁻¹ s⁻¹	B15
1.44 nM	0.00216 s⁻¹	1.5e+06 M⁻¹ s⁻¹	B16
0.866 nM	8.18e-05 s⁻¹	94500 M⁻¹ s⁻¹	B17
1.34 nM	0.000296 s⁻¹	221000 M⁻¹ s⁻¹	B18
1.69 nM	0.00107 s⁻¹	630000 M⁻¹ s⁻¹	B19
1.42 nM	0.000344 s⁻¹	242000 M⁻¹ s⁻¹	B20
2.12 nM	0.000162 s⁻¹	76200 M⁻¹ s⁻¹	B21
2.74 nM	0.000463 s⁻¹	169000 M⁻¹ s⁻¹	B22
0.0565 nM	6.9e-06 s⁻¹	122000 M⁻¹ s⁻¹	B23
2.48 nM	0.00191 s⁻¹	771000 M⁻¹ s⁻¹	B24

Target: Recombinant human his-tagged IGF 1R extracellular domain protein (human) (UniProt P08069)
Experiment: SPR, captured antibody, pH 7.4

Kd	koff	kon	Binder
2.95 nM	0.000282 s⁻¹	95700 M⁻¹ s⁻¹	B1
3.45 nM	0.000209 s⁻¹	60500 M⁻¹ s⁻¹	B2
4.71 nM	0.000362 s⁻¹	77000 M⁻¹ s⁻¹	B3
0.89 nM	0.000361 s⁻¹	405000 M⁻¹ s⁻¹	B4
1.92 nM	0.000188 s⁻¹	97700 M⁻¹ s⁻¹	B5
6.74 nM	0.000286 s⁻¹	42500 M⁻¹ s⁻¹	B6
1.56 nM	0.000183 s⁻¹	117000 M⁻¹ s⁻¹	B7
1.79 nM	0.000188 s⁻¹	105000 M⁻¹ s⁻¹	B8
2.68 nM	0.000173 s⁻¹	64500 M⁻¹ s⁻¹	B9
3.97 nM	0.000195 s⁻¹	49000 M⁻¹ s⁻¹	B10
16.1 nM	0.00105 s⁻¹	65100 M⁻¹ s⁻¹	B11
2.03 nM	0.00021 s⁻¹	103000 M⁻¹ s⁻¹	B12
0.785 nM	7.02e-05 s⁻¹	89300 M⁻¹ s⁻¹	B13
3.05 nM	0.000259 s⁻¹	85000 M⁻¹ s⁻¹	B14
2.05 nM	0.000135 s⁻¹	65900 M⁻¹ s⁻¹	B15
12.8 nM	0.00637 s⁻¹	498000 M⁻¹ s⁻¹	B16
1.11 nM	0.000104 s⁻¹	93500 M⁻¹ s⁻¹	B17
2.18 nM	0.000139 s⁻¹	63700 M⁻¹ s⁻¹	B18
5.52 nM	0.00134 s⁻¹	244000 M⁻¹ s⁻¹	B19
2.69 nM	0.000156 s⁻¹	58000 M⁻¹ s⁻¹	B20
1.86 nM	0.000203 s⁻¹	110000 M⁻¹ s⁻¹	B21
2.97 nM	0.000322 s⁻¹	109000 M⁻¹ s⁻¹	B22
33.4 nM	0.000991 s⁻¹	29700 M⁻¹ s⁻¹	B23
2.76 nM	0.00388 s⁻¹	1.41e+06 M⁻¹ s⁻¹	B24

Source: patent US20240352133A1
